From US20260242436A1 (HANMI PHARM, published 2026) come the findings set out here.

The chains are these.
B1: interleukin-2 analog 20 (ligand)
chain: PTSSSTKKTQLQLEHLLLDLQMILNGINNYKNPKLTAMLTKKFYMPKKATELKHLQCLEEELKPLEEVLNLAQSKNFHLRPRDVVSNINVFVLELKGSETTFMCEYADETATIVEFLNRWITFSQSIISTLT
B2: interleukin-2 analog 12 (ligand)
chain: B1 chain with V84L, V85I, F91I
B3: interleukin-2 analog 53 (ligand)
chain: B1 chain with L79F, R80D, D83E, V84L, V85I
B4: interleukin-2 analog 15 (ligand)
chain: B1 chain with D83E, V84L, V85I, F91I
B5: interleukin-2 analog 19 (ligand)
chain: B1 chain with R80D, V84L, V85I
B6: interleukin-2 analog 52 (ligand)
chain: B1 chain with L79F, R80D, V84L, V85I
B7: interleukin-2 analog 21 (ligand)
chain: B1 chain with L79F, R80D
B8: interleukin-2 analog 99 (ligand)
chain: B1 chain with K41F, L79F, R80E, V84L
B9: interleukin-2 analog 96 (ligand)
chain: B1 chain with A37R, K41F, V68G, Q73A, L79F, R80E
B10: interleukin-2 analog 93 (ligand)
chain: B1 chain with A37R, K41F, L79F, R80E, D83E, V90T
B11: interleukin-2 analog 88 (ligand)
chain: B1 chain with A37R, K41F, E60D, L79F, R80E
B12: interleukin-2 analog 97 (ligand)
chain: B1 chain with K41F, L79F, R80D, V84L, V85I
B13: interleukin-2 analog 98 (ligand)
chain: B1 chain with K41F, L79F, R80E, V85I
B14: interleukin-2 analog 86 (ligand)
chain: B1 chain with L17R, Q21E, A37R, K41F, L79F, R80E
B15: interleukin-2 analog 95 (ligand)
chain: B1 chain with A37R, K41F, V68G, L79F, R80E
B16: interleukin-2 analog 35 (ligand)
chain: B1 chain with K41F, V84L, V85I, F91I, L93F, L95F
B17: interleukin-2 analog 105 (ligand)
chain: B1 chain with L17R, Q21E, A37R, K41F, E67D, L79F, R80E
B18: interleukin-2 analog 92 (ligand)
chain: B1 chain with A37R, K41F, L79F, R80E, V90T
B19: interleukin-2 analog 90 (ligand)
chain: B1 chain with A37R, K41W, L79F, R80E
B20: interleukin-2 analog 104 (ligand)
chain: B1 chain with L17R, Q21E, A37R, K41F, E60D, L79F, R80E
B21: interleukin-2 analog 102 (ligand)
chain: B1 chain with A37R, K41F, L79F, R80E, F91I
B22: interleukin-2 analog 101 (ligand)
chain: B1 chain with A37R, K41F, L79F, R80E, V84L, V85A
B23: interleukin-2 analog 17 (ligand)
chain: B1 chain with V84L, V85I, V90T, F91I
B24: interleukin-2 analog 103 (ligand)
chain: B1 chain with L17R, Q21E, K41F, L79F, R80E
B25: interleukin-2 analog 100 (ligand)
chain: B1 chain with A37R, K41F, L79F, R80E, V84Y
B26: interleukin-2 analog 91 (ligand)
chain: B1 chain with A37R, K41F, E60Q, L79F, R80E

Numbering of substitutions follows the chain as printed.

One test deals with T1, interleukin-2 alpha receptor (SYMANSIS, #4102H) to which a human immunoglobulin Fc region was linked (UniProt P01589 22-213, limits assumed).
T1 construct: Bought receptor-Fc, captured on anti-human immunoglobulin antibody; also called IL-2Rα; CD25; not shown: human immunoglobulin Fc region
T1 sequence (looked up): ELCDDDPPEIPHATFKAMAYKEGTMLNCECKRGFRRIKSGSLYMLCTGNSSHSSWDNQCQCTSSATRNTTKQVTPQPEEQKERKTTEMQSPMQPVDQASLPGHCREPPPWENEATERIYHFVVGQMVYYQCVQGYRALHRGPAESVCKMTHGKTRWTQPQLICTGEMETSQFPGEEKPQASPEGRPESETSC
Nature of the test: SPR (Biacore T200); receptor-Fc captured on anti-human Ig CM5 chip.
With B1, the binding result was “no binding”.
The same measure, in the same setting: the same measure for B2: “no binding”; for B3: “no binding”.
Still for that read-out and setting: the value for B4 was “no binding”; that for B5 was “no binding”.
Still for that read-out and setting: the same measure for B6: “no binding”; for B7: “no binding”.

The target in a further test is T2, interleukin-2 beta receptor (SYMANSIS, #4122H) to which a human immunoglobulin Fc region was linked (UniProt P14784 27-239, limits assumed).
T2 construct: Bought receptor-Fc, captured on anti-human immunoglobulin antibody; also called IL-2Rβ; CD122; not shown: human immunoglobulin Fc region
T2 sequence (looked up): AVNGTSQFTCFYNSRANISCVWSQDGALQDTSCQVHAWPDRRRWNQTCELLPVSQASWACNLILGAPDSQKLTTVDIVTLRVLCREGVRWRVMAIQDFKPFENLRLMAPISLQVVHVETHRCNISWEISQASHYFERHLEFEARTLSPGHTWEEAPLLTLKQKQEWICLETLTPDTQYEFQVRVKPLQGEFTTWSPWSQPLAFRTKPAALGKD
Nature of the test: SPR (Biacore T200); receptor-Fc captured on anti-human Ig CM5 chip, analog flowed; relative to analog 1 = 100%. How it is done:
(§1) In order to measure the binding affinities of the interleukin-2 analogs obtained in Example 4 for each of interleukin-2 alpha and beta receptors, surface plasmon resonance (SPR, BIACORE T200, GE Healthcare) was used. The binding affinities of the prepared analogs for the alpha and beta receptors were measured, and the binding affinity of each of the prepared analogs was compared with that of interleukin-2 analog 1 (aldesleukin).
(§2) First, an anti-human immunoglobulin antibody (Abcam, #ab97221) was immobilized to a CM5 chip (GE healthcare) to about 5,000 resonance unit (RU) through amine coupling, and then the interleukin-2 alpha receptor ([…], #4102H) or interleukin-2 beta receptor ([…], #4122H), to each of which a human immunoglobulin Fc region was linked, was bound to the immunoglobulin antibody using an antigen-antibody binding reaction and thus finally immobilized. Thereafter, the recombinant interleukin-2 analog prepared above was diluted with HBS-P+ buffer (Cytiva, BR100671) to various concentrations by serial dilution, and the diluted samples were allowed to flow through CM5 chips, to which the interleukin-2 receptors were finally immobilized, to measure the binding affinity of each interleukin-2 receptor. […] Upon the completion of the measurement, the binding affinity of the receptor was evaluated according to the 1:1 binding fitting model in the Biaevaluation program.
Consider B1, for which the “Relative binding affinity (%)” value turned out to be 156%.
On the same count and under the same terms, the same measure for B8: 1510%; for B2: 166%; for B9: 229%.
With B10, the “Relative binding affinity (%)” value came to 697%.
On the same count and under the same terms, the value for B11 was 13900%.
With B12, the “Relative binding affinity (%)” value was determined as 3020%.
Consider B13, for which the “Relative binding affinity (%)” value was found to be 11100%.
On to B3, for which the “Relative binding affinity (%)” value was determined as 691%.
The same measure, in the same setting: the same measure for B14: 18700%; for B15: 17.1%.
The same measure, in the same setting: the value for B4 was 98.1%.
In the case of B16, the “Relative binding affinity (%)” value turned out to be 233%.
Same read-out and setting: the same measure for B17: 26800%; for B18: 1510%.
On to B19, for which the “Relative binding affinity (%)” value came to 12800%.
For the molecule B20, the “Relative binding affinity (%)” value was found to be 25400%.
The same measure, in the same setting: the value for B5 was 455%.
On the same count and under the same terms, the same measure for B21: 4450%; for B22: 113%.
On to B23, for which the “Relative binding affinity (%)” value worked out at 9.4%.
On the same count and under the same terms, the value for B24 was 13100%.
B25: the “Relative binding affinity (%)” value is 2530%.
For B6, the “Relative binding affinity (%)” value was found to be 3820%.
Still for that read-out and setting: the value for B7 was 14100%; that for B26 was 7360%.

The target of another test is T1, interleukin-2 alpha receptor (SYMANSIS, …). The test is described as above. How it is done: as §1, §2
With B8, the “Relative binding affinity (%)” value amounted to 19.9%.
Still for that read-out and setting: the same measure for B9: 14.9%; for B10: 92.8%.
On the same count and under the same terms, the same measure for B11: 102%.
As for B12, the “Relative binding affinity (%)” value worked out at 18.8%.
Still for that read-out and setting: the same measure for B13: 7.7%; for B14: 71.1%; for B15: 10.7%.
On the same count and under the same terms, the value for B16 was 31.7%.
With B17, the “Relative binding affinity (%)” value came to 247%.
The same measure, in the same setting: the same measure for B18: 97.3%; for B19: 98.4%.
Same read-out and setting: the same measure for B20: 122%; for B21: 151%; for B22: 24.7%.
Still for that read-out and setting: the same measure for B23: 29.6%; for B24: 6.1%.
Take B25: the “Relative binding affinity (%)” value was 29.1%.
On the same count and under the same terms, the value for B26 was 7.9%.
